Measurements as given in paper PMC2724282 (Nucleic Acids Research, 2009).

Biological target: the molecule itself
Assay: cross-linking

B1: Hin–H107Y/S94C (enzyme)
chain: MATIGYIRVSTIDQNIDLQRNALTSANCDRIFEDRISGKIANRPGLKRALKYVNKGDTLVVWKLDRLGRSVKNLVALISELHERGAHFHSLTDCIDTSSAMGRFFFYVMSALAEMERELIVERTLAGLAAARAQGRLGGRPRAINKHEQEQISRLLEKGHPRQQLAIIFGIGVSTLYRYFPASRIKKRMN
- binding result: binds
